Values quoted from earlier work as cited in PMC4689310.
Values belong to the substance of their own block, whether it stands above or below them.

Assays:
[1] = target: H4K20me1 peptide (Homo sapiens) (UniProt P62805)
[2] = target: H3K18ac peptide 1-28 (Homo sapiens) (UniProt P68431)
[3] = target: H3 peptide 1-28 (Homo sapiens) (UniProt P68431)
[4] = target: H3K9me3 peptide 1-28 (Homo sapiens) (UniProt P68431)
[5] = target: H3 K4un/K23ac peptide (Homo sapiens) (UniProt P68431)
[6] = target: H3K23ac peptide 13-32 (Homo sapiens) (UniProt P68431)
[7] = target: H3 unmodified K4 peptide (Homo sapiens) (UniProt P68431)
[8] = target: H4K16ac peptide (Homo sapiens) (UniProt P62805); assay: ITC
[9] = target: H3 peptide 1-18 (Homo sapiens) (UniProt P68431)

DPF3b tandem PHD fingers, sequence (Q92784 259-366): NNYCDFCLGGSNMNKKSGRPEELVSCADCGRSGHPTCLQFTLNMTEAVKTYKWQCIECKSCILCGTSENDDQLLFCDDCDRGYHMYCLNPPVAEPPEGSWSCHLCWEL

Kd [2]: 0.21 µM
Kd [3]: 0.46 µM
Kd [4]: 0.2 µM
Substance: TRIM33 PHD-Bromo (from UniProt Q9UPN9)

Kd [5]: 0.096 µM
Kd [6]: 8.8 µM
Kd [7]: 2.3 µM
Substance: TRIM24 PHD-Bromo (from UniProt O15164)

Kd [8]: 39 µM
Substance: TAF1 double bromodomain (from UniProt P21675)

Second part, the substance before the results:

Substance: MSL3 chromodomain (from UniProt Q8N5Y2)
Kd [1]: 10 µM

Substance: DPF3b tandem PHD fingers (from UniProt Q92784)
Kd [9]: 2.3 µM
